According to PMC6056499, “A systematic dissection of sequence elements determining β-Klotho and FGF interaction and signaling” (Scientific Reports, 2018):

T1: human β-Klotho extracellular domain (aa1–992) fused with a 6 × His tag at the C-terminus (human, UniProt Q86Z14 1-992, biotin (EZ-Link Sulfo-NHS-LC-Biotin) in the bio-layer interferometry)
T1 construct: signal peptide in the construct; human β-Klotho extracellular domain, aa1–992 of the full-length protein aa1-1044 (NM_175737); also called β-Klotho ECD 6 × His; soluble human β-Klotho; source: CHO-EBNA1, transiently transfected, conditioned medium; not shown: His6, C-terminal, kept
T1 sequence (looked up): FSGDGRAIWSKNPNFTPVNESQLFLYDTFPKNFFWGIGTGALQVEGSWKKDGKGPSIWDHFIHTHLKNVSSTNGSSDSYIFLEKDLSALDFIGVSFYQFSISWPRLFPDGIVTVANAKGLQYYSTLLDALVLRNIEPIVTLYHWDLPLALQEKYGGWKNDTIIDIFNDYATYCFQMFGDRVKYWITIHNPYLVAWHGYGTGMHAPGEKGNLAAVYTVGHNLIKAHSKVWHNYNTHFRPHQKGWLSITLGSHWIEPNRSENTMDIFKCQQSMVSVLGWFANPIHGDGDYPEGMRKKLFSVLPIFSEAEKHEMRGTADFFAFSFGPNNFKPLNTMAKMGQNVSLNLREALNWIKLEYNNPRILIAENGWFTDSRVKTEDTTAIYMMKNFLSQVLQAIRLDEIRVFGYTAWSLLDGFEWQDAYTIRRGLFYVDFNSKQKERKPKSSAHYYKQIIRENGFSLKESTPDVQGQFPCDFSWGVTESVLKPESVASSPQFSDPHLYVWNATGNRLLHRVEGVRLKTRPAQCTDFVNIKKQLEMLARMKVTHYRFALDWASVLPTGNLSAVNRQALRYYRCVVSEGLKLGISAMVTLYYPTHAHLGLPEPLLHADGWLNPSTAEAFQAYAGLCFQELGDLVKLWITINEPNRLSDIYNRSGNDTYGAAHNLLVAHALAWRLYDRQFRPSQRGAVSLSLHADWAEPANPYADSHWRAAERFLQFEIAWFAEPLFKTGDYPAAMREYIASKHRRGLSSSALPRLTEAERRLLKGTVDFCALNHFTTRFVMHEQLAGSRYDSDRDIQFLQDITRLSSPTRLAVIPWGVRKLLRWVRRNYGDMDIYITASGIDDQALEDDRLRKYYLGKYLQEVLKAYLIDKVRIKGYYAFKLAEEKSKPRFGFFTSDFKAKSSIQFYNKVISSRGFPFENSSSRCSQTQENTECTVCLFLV


The binders below were run against T1, human β-Klotho extracellular domain … (assay: ELISA; solid-phase binding assay: WT β-Klotho captured from CHO-EBNA1 conditioned media by plate-coated anti-β-Klotho antibody; purified Fc-FGF21 titrated, 1.5 h room temperature; detected with anti-human IgG Fc-HRP). Conditions: one partner purified.

Binder | fold increase in EC50 compared to WT [fold]
Fc-FGF21, 192D to arginine (Fc fusion, human, UniProt Q9NSA1 29-209, looked up, human FGF21, mature polypeptide (NM_019113); also called D192R; source: HEK293-EBNA1, transiently transfected, purified (protein A); not shown: Fc (human), N-terminal, kept) HPIPDSSPLLQFGGQVRQRYLYTDDAQQTEAHLEIREDGTVGGAADQSPESLLQLKALKPGVIQILGVKTSRFLCQRPDGALYGSLHFDPEACSFRELLLEDGYNVYQSEAHGLPLHLPGNKSPHRDPAPRGPARFLPLPGLPPALPEPPGILAPQPPDVGSSRPLSMVGPSQGRSPSYAS | > 100
Fc-FGF21, 192D to alanine (Fc fusion, human, UniProt Q9NSA1 29-209, looked up, human FGF21, mature polypeptide (NM_019113); also called D192A; source: HEK293-EBNA1, transiently transfected, purified (protein A); not shown: Fc (human), N-terminal, kept) HPIPDSSPLLQFGGQVRQRYLYTDDAQQTEAHLEIREDGTVGGAADQSPESLLQLKALKPGVIQILGVKTSRFLCQRPDGALYGSLHFDPEACSFRELLLEDGYNVYQSEAHGLPLHLPGNKSPHRDPAPRGPARFLPLPGLPPALPEPPGILAPQPPDVGSSAPLSMVGPSQGRSPSYAS | > 100
Fc-FGF21, 193P to alanine (Fc fusion, human, UniProt Q9NSA1 29-209, looked up, human FGF21, mature polypeptide (NM_019113); also called P193A; source: HEK293-EBNA1, transiently transfected, purified (protein A); not shown: Fc (human), N-terminal, kept) HPIPDSSPLLQFGGQVRQRYLYTDDAQQTEAHLEIREDGTVGGAADQSPESLLQLKALKPGVIQILGVKTSRFLCQRPDGALYGSLHFDPEACSFRELLLEDGYNVYQSEAHGLPLHLPGNKSPHRDPAPRGPARFLPLPGLPPALPEPPGILAPQPPDVGSSDALSMVGPSQGRSPSYAS | > 100
Fc-FGF21, 193P to arginine (Fc fusion, human, UniProt Q9NSA1 29-209, looked up, human FGF21, mature polypeptide (NM_019113); also called P193R; source: HEK293-EBNA1, transiently transfected, purified (protein A); not shown: Fc (human), N-terminal, kept) HPIPDSSPLLQFGGQVRQRYLYTDDAQQTEAHLEIREDGTVGGAADQSPESLLQLKALKPGVIQILGVKTSRFLCQRPDGALYGSLHFDPEACSFRELLLEDGYNVYQSEAHGLPLHLPGNKSPHRDPAPRGPARFLPLPGLPPALPEPPGILAPQPPDVGSSDRLSMVGPSQGRSPSYAS | > 100

Other lines, results leading:

fold increase in EC50 compared to WT [fold] | Binder
> 100 | Fc-FGF21, 194L to arginine (Fc fusion, human, UniProt Q9NSA1 29-209, looked up, human FGF21, mature polypeptide (NM_019113); also called L194R; source: HEK293-EBNA1, transiently transfected, purified (protein A); not shown: Fc (human), N-terminal, kept) HPIPDSSPLLQFGGQVRQRYLYTDDAQQTEAHLEIREDGTVGGAADQSPESLLQLKALKPGVIQILGVKTSRFLCQRPDGALYGSLHFDPEACSFRELLLEDGYNVYQSEAHGLPLHLPGNKSPHRDPAPRGPARFLPLPGLPPALPEPPGILAPQPPDVGSSDPRSMVGPSQGRSPSYAS
> 100 | Fc-FGF21, 196M to arginine (Fc fusion, human, UniProt Q9NSA1 29-209, looked up, human FGF21, mature polypeptide (NM_019113); also called M196R; source: HEK293-EBNA1, transiently transfected, purified (protein A); not shown: Fc (human), N-terminal, kept) HPIPDSSPLLQFGGQVRQRYLYTDDAQQTEAHLEIREDGTVGGAADQSPESLLQLKALKPGVIQILGVKTSRFLCQRPDGALYGSLHFDPEACSFRELLLEDGYNVYQSEAHGLPLHLPGNKSPHRDPAPRGPARFLPLPGLPPALPEPPGILAPQPPDVGSSDPLSRVGPSQGRSPSYAS
> 100 | Fc-FGF21, 194L to alanine (Fc fusion, human, UniProt Q9NSA1 29-209, looked up, human FGF21, mature polypeptide (NM_019113); also called L194A; source: HEK293-EBNA1, transiently transfected, purified (protein A); not shown: Fc (human), N-terminal, kept) HPIPDSSPLLQFGGQVRQRYLYTDDAQQTEAHLEIREDGTVGGAADQSPESLLQLKALKPGVIQILGVKTSRFLCQRPDGALYGSLHFDPEACSFRELLLEDGYNVYQSEAHGLPLHLPGNKSPHRDPAPRGPARFLPLPGLPPALPEPPGILAPQPPDVGSSDPASMVGPSQGRSPSYAS
> 100 | Fc-FGF21, 196M to alanine (Fc fusion, human, UniProt Q9NSA1 29-209, looked up, human FGF21, mature polypeptide (NM_019113); also called M196A; source: HEK293-EBNA1, transiently transfected, purified (protein A); not shown: Fc (human), N-terminal, kept) HPIPDSSPLLQFGGQVRQRYLYTDDAQQTEAHLEIREDGTVGGAADQSPESLLQLKALKPGVIQILGVKTSRFLCQRPDGALYGSLHFDPEACSFRELLLEDGYNVYQSEAHGLPLHLPGNKSPHRDPAPRGPARFLPLPGLPPALPEPPGILAPQPPDVGSSDPLSAVGPSQGRSPSYAS

What follows are binders tested against T1, human β-Klotho extracellular domain … (assay: BLI; Octet RED; biotinylated β-Klotho ECD 6×His (10 µg/mL) loaded on streptavidin biosensors; FGF21 or Fc-FGF21 associated 5 min, dissociated 5 min in kinetics buffer; 1:1 binding model). Conditions: both partners purified.

Binder | fold increase in affinity over native FGF21 [fold]
mature human FGF21 polypeptide fused with the human Fc fragment at the N-terminus (Fc-FGF21), wild type (Fc fusion, UniProt Q9NSA1 29-209, looked up, human FGF21, mature polypeptide (NM_019113); also called WT Fc-FGF21; source: HEK293-EBNA1, transiently transfected, purified (protein A, MabSelect SuRe); not shown: Fc (human), N-terminal, kept) HPIPDSSPLLQFGGQVRQRYLYTDDAQQTEAHLEIREDGTVGGAADQSPESLLQLKALKPGVIQILGVKTSRFLCQRPDGALYGSLHFDPEACSFRELLLEDGYNVYQSEAHGLPLHLPGNKSPHRDPAPRGPARFLPLPGLPPALPEPPGILAPQPPDVGSSDPLSMVGPSQGRSPSYAS | 4

Each binder was assayed against T1, human β-Klotho extracellular domain … (assay: ELISA; solid-phase binding assay: β-Klotho (500 ng/mL) captured from CHO-EBNA1 conditioned media by plate-coated mouse anti-human β-Klotho antibody; biotinylated FGF21 titrated, 1.5 h room temperature; streptavidin-HRP; three-parameter logistic fit). Conditions: one partner purified.

Binder | EC50 [nM]
mature human FGF21 (ligand, UniProt Q9NSA1 29-209, looked up, biotin (EZ-Link Sulfo-NHS-LC-Biotin) in the solid-phase binding assay; biotinylated as the labelled ligand in AlphaScreen, human FGF21, mature protein; also called native FGF21) HPIPDSSPLLQFGGQVRQRYLYTDDAQQTEAHLEIREDGTVGGAADQSPESLLQLKALKPGVIQILGVKTSRFLCQRPDGALYGSLHFDPEACSFRELLLEDGYNVYQSEAHGLPLHLPGNKSPHRDPAPRGPARFLPLPGLPPALPEPPGILAPQPPDVGSSDPLSMVGPSQGRSPSYAS | 3.98
